Measured values as given in US20080096223A1.

Columns and labels:
[1] = target: VWF in human whole blood of healthy volunteers (human) (UniProt P04275); experiment: cell-based or functional assay
[2] = target: reference Nanobody (in accordance with WO 04/062551); experiment: competition ELISA: soluble ristocetin-preincubated wt-VWF at equal molar concentration against 62.5 nM biotinylated reference Nanobody on immobilized VWF

platelet coverage [1] | percent reduction of binding [2] | Substance
67.8% |  | GpIbα on platelets (from UniProt P07359 17-652) (receptor)
 | 90% | wt-VWF preincubated with 1 mg/ml ristocetin (ristocetin-activated VWF) (from UniProt P04275 764-2813)
